According to the nanobody polyreactivity screen of Harvey et al. (2022):

Assay: yeast display, Sf9 membrane polyspecificity reagent, FACS + sequencing; frameworks hold sequencing errors
How it was run: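 Galactose-induced (36–48 hours) yeast carrying a synthetic nanobody display library were exposed to 10% biotinylated, detergent-solubilized Sf9 membrane reagent at 4 °C for 1 hour. FACS followed streptavidin microbead enrichment, using low and high (top ~1%) gates for expression (anti-HA) and reagent binding (streptavidin). Colony PCR, MiSeq 2 × 250 sequencing and CDR-length filtering followed. Labels for polyreactivity reflect the gate of origin.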
With “QVQLVESGGGLVQAGGSLRLSCAASGFIYKINAMGWYRQAPGKERELVARITSGGRTNYADSVKGRFTISRDNAKNTVYLQMDSLKPEDTAVYYCAARYLAYGPTGYLYGYNYWGQGTQVTVSS” the “polyreactivity (PSR sort gate)” value was “high polyreactivity”.
In the case of “QVQLVESGGGLVQAGGSLRLSCAASGFIYRVYAIGWYRQAPGKERELVAAITGNGVSTYYADSVKVRFTISRDNAKNTVYLQMNSLKPEDTAVYYCATYGRRWYSSRRLDYWGQGTQVTVSS”, the “polyreactivity (PSR sort gate)” value is reported as “low polyreactivity”.
In the case of “QVQLVESGGGLVQAGGSLRLSCAASGFIYSTYAMGWYRQAPGKERELVAAISWSGGRTNYADSVKGRFTISRDNAKNTVYLQMNSLKPEDTAVYYCAVGGERGARIGSNHRGSRYDYWGQGTQVTVSS”, the “polyreactivity (PSR sort gate)” value is reported as “high polyreactivity”.
For “QVQLVESGGGLVQAGGSLRLSCAASGFIYSYAMGWYRQAPGKERELVAAISRSGGSTYYADSVKGRFTISRDNAKNTVYLQKNSLKPEDTAVYYCAALRRYPRDNIMYYYPYDYWGQGTQVTVSS”, the “polyreactivity (PSR sort gate)” value was “high polyreactivity”.
With “QVQLVESGGGLVQAGGSLRLSCAASGFKYAMGWYRQATGKERELVAAISSGGITSYADSVKGRFTISRDNAKNTVYLQMNSLKPEDTAVYYCNARLRHSQYAYYYWGQGTQVTVSS” the “polyreactivity (PSR sort gate)” value was “high polyreactivity”.
For “QVQLVESGGGLVQAGGSLRLSCAASGFMFTRYAMGSYRQAPGKERELVAAISWIGTSTYYADSVKGRCTISRDNAKNTVFLQMNSLTPEDTAVYYCNALLYSTGRPGFYLGYDYWGQGTQVTVSS”, the “polyreactivity (PSR sort gate)” value was “high polyreactivity”.
For “QVQLVESGGGLVQAGGSLRLSCAASGFNFAFYDMGWYRQAPGKERELVAAISWGGSTYYADSVKGRFTISRDNAKNTVYLQMNRLKPEDTAVYYCAARLSRSYRYGYWGQGTQVTVSS”, the “polyreactivity (PSR sort gate)” value was “high polyreactivity”.
With “QVQLVESGGGLVQAGGSLRLSCAASGFNFGSNAMGWYRQAPGKERELVAAITYSGASTYYADSVKGRFTISRDNAKNTVYLQMNSLKPEDTAVYSCAADLTSYYGGDYWGQGTQVTVSS” the “polyreactivity (PSR sort gate)” value was “low polyreactivity”.
For “QVQLVESGGGLVQAGGSLRLSCAASGFNFPYYAMGWYRQAPGKERALVAAIRISGGSTYYADSVKGRFTISRDNAKNTVYLQMNSLKPEDTAVYYCAADYRYRSRFYYWGQGTQVTVSS”, the “polyreactivity (PSR sort gate)” value was “low polyreactivity”.
For “QVQLVESGGGLVQAGGSLRLSCAASGFNFRGNAMGWYRQAPGKERELVARISGSGDSTYYADSVKGRFTISRDNAKNTVYLQMNSLKPEDTAVYYCNADVFPAVEAYDSSIEYYSWGQGTQVTVSS”, the “polyreactivity (PSR sort gate)” value was “low polyreactivity”.
In the case of “QVQLVESGGGLVQAGGSLRLSCAASGFNFRRNAMGWYRQAPGKERELVAVITSSARTNYADSVKGRFTISRDNAKNTVYLQMNSLNPEDTAVYSCNAYRYRQSSSDKYGYWGQGTQVTVSS”, the “polyreactivity (PSR sort gate)” value is reported as “high polyreactivity”.
For “QVQLVESGGGLVQAGGSLRLSCAASGFNFRYYAMGWYRQAPGKERELVAAISASSGRTYYADSVKGRFTISRDNAKNTVYLQMNSLKPEDTAVYYCAAEYIRNGDYGLDYWGQGTQVTVSS”, the “polyreactivity (PSR sort gate)” value was “high polyreactivity”.
In the case of “QVQLVESGGGLVQAGGSLRLSCAASGFNFRYYAMGWYRQAPGKERELVAAISWSGGTTYYADSVKGRFTISRDNAKNTVYLQMNSLKPEDTAVYYCAARVARFSVPYDYWGQGTQVTVSS”, the “polyreactivity (PSR sort gate)” value is reported as “low polyreactivity”.
With “QVQLVESGGGLVQAGGSLRLSCAASGFNFSLNAMGWYRQAPGKERELVAAISRSGGRTYYADSVKGRFTISRDNAKNTVYLQMNSLKPEDTAVYYCAAVPITWYAYDYWGQGTQVTVSS” the “polyreactivity (PSR sort gate)” value was “high polyreactivity”.
In the case of “QVQLVESGGGLVQAGGSLRLSCAASGFNFSQYAMGWYRQAPGKERELVAAISSGSTYADSVKGRFTISRDNAKNSVYLQMNSLKREDTAVYYCANDPFSRGSRRYDYWGQGTQVTVSS”, the “polyreactivity (PSR sort gate)” value is reported as “low polyreactivity”.
With “QVQLVESGGGLVQAGGSLRLSCAASGFNFTLNTMGWYRQAPGKERELVAAINSGDSTYADSVKGRFTISRDNAKNTVYLQMNSLKPEDTAVYYCNADPDWWYPFNYWGQGTQVTVSS” the “polyreactivity (PSR sort gate)” value was “low polyreactivity”.
In the case of “QVQLVESGGGLVQAGGSLRLSCAASGFNFYDYTMGWYRQAPGKERELVAAISWSGGSTYHADSVKGRFTISRDTAKNTVYLQMNSLKPEDTAVYYCNADYGYYKSGYGFDYWGQGTKVTVSS”, the “polyreactivity (PSR sort gate)” value is reported as “low polyreactivity”.
With “QVQLVESGGGLVQAGGSLRLSCAASGFNFYGYVMGWYRQAPGKERELVAVISRSGDRTSYADSVKGRFTISRDTAKNTVYLQMNSLKPEDTAVYYCAAESGWGAAGEELDYWGQGTQVTVSS” the “polyreactivity (PSR sort gate)” value was “high polyreactivity”.
With “QVQLVESGGGLVQAGGSLRLSCAASGFNFYRNTMGWYSQAPGKEREFVAAIRWRGGSTYYADSVKGRFTISRDNAKNTVYLQMNSLKPEDTAVYYCAADTRPGYSGFEYWGQGTQVTVSS” the “polyreactivity (PSR sort gate)” value was “high polyreactivity”.
For “QVQLVESGGGLVQAGGSLRLSCAASGFNFYRYTLGWYRQAPGKERELVASITRRCGSTYYADSVKGRFTISRDNAKHTVYLQMNILKQEDTAEYYCNDATPVWQSGTYDYWGQGTQVTVSS”, the “polyreactivity (PSR sort gate)” value was “high polyreactivity”.
With “QVQLVESGGGLVQAGGSLRLSCAASGFNFYTNVMGWYRPAPGKERELVAAINSGGSTNYADSVKGRFTISRDNAKNTVYLQMNSLKPEDTAVYYCAARVARISVPYDYWGQGTQVTVSS” the “polyreactivity (PSR sort gate)” value was “low polyreactivity”.
In the case of “QVQLVESGGGLVQAGGSLRLSCAASGFNYGIYAMGWYRQAPGKERELVAAISRGGGSTYYADSVKGRFTISRDNAKNTVYLQMNSLKPEDTAVYYCAARYQSPYDYWGQGTQVTVSS”, the “polyreactivity (PSR sort gate)” value is reported as “high polyreactivity”.
With “QVQLVESGGGLVQAGGSLRLSCAASGFNYYRYVMVWYRQAPGKERELVAAITTSGGSTYYADSVKGRFTISRDNAKNTVYLQMNSLKPEDTAVYYCAAVYIPSRQWYDYWGQGTQVTVSS” the “polyreactivity (PSR sort gate)” value was “high polyreactivity”.
In the case of “QVQLVESGGGLVQAGGSLRLSCAASGFSFATYAMGWYRQAPGKERELVAAISSTGGRTYYAVSVKGRFTISRDNAKNNVYLQMNSLKPEDTAVYYCAADWRVTYDYWGQGTQVTVSS”, the “polyreactivity (PSR sort gate)” value is reported as “high polyreactivity”.
In the case of “QVQLVESGGGLVQAGGSLRLSCAASGFSFGIYAMGWYRQAPGKERELYADSVKGRFTISRDNAKNTVYLQMNSLKPEDTAVYYCAADYWYGAGLPHGTEFDYWGQGTQVTVSS”, the “polyreactivity (PSR sort gate)” value is reported as “low polyreactivity”.
For “QVQLVESGGGLVQAGGSLRLSCAASGFSFRGYAMGWYRQAPGKERELVAAINYSGGSTYYADSVKGRFTISRDNAKNTVYLQMNSLKPEDTAVYYCAAGKRGDDDYWGQGTQVTVSS”, the “polyreactivity (PSR sort gate)” value was “high polyreactivity”.
In the case of “QVQLVESGGGLVQAGGSLRLSCAASGFTFAAYAMGWYRPAPGKERELVAAITSRDGTTYYADSVKGRFTISRNNAKNTVYLQMNSLKPEDTAVYYGAKDHFTWGVSEDDYWRQGTQVTVSS”, the “polyreactivity (PSR sort gate)” value is reported as “low polyreactivity”.
In the case of “QVQLVESGGGLVQAGGSLRLSCAASGFTFAHNAMGWYRQAPGKERELVAAITSRGGSTYYADSVKGRFTISRDNAKNTVYLQMNSLKPEDTAVYYCAARGVNRQVFNYWGQGTQVTVSS”, the “polyreactivity (PSR sort gate)” value is reported as “high polyreactivity”.
With “QVQLVESGGGLVQAGGSLRLSCAASGFTFAKNAMGWYRQAPGKERELVATISRSGGSTYYADSVKGRFTLSRDNAKNTVYLQMNSLKREVNAVYYCNKKYNYLYDYWGQGTQVTVSS” the “polyreactivity (PSR sort gate)” value was “high polyreactivity”.
For “QVQLVESGGGLVQAGGSLRLSCAASGFTFAKYAMGWSRQAPGKERELVAAIRSRGDTTYYADSVKGRFTISRDNAKNTVYFQMNSLKPEDTAVYYCAARSYFLVDCSRYDYWGQGSQVTVSS”, the “polyreactivity (PSR sort gate)” value was “high polyreactivity”.
In the case of “QVQLVESGGGLVQAGGSLRLSCAASGFTFAKYAMGWYRQAPGKERELVAAISSNGGTTYYADSVKGRFTISRDNAKNTVYLQMNSLKPEDTAVYYCAVRSRVYPSRVKYDYWGQGTQVTVSS”, the “polyreactivity (PSR sort gate)” value is reported as “high polyreactivity”.
For “QVQLVESGGGLVQAGGSLRLSCAASGFTFAPNAMGWYRQAPGKEREFVAVITYRSTSTFYADSVKGRFTISRDNAKNTVYLQMNSLKPEDTAVYYCNAKYLWYGRYNYWGQGTQVTVSS”, the “polyreactivity (PSR sort gate)” value was “high polyreactivity”.
